From patent US20130072665A1 (Amgen, published 2013) come the findings set out here.

Like-named read-outs stand apart in the source and are kept apart here.

Holding throughout (assay): domain binding ELISA (coated antibody captures the PCSK9 form; OD650)
Experiment [1] addresses T1, PCSK9 ProCat (31-449 of SEQ ID NO: 3) (human, UniProt Q8NBP7 27-449).
T1 construct: From PCSK9 449TEV after rTEV cleavage: GAMG-PCSK9 (31-449)-ENLYFQ; Written as one chain; autocatalysis between 152 and 153 splits pro-domain and catalytic domain; also called procat PCSK9; PCSK9 31-449

The target of experiment [2] is T2, PCSK9 V domain (450-692 of SEQ ID NO: 3) (human, UniProt Q8NBP7 450-692).
T2 construct: also called v-domain PCSK9
T2 chain: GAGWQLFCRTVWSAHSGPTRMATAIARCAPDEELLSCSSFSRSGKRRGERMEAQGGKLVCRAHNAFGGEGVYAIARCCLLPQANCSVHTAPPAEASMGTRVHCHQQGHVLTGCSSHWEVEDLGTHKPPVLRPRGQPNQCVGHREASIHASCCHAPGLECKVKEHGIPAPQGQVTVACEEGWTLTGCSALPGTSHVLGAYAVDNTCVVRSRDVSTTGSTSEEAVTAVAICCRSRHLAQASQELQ

The target in experiment [3] is T1, PCSK9 ProCat (31-449 of SEQ ID NO: 3). This is another data set of the same source.
Experiment [4] addresses T2, PCSK9 V domain (450-692 of SEQ ID NO: 3).

B1: 30B9 (antibody, V domains shown)
VH: QVQLVQSGAEVKKPGASVKVSCKASGYPLTSYGISWVRQAPGQGLEWMGWISAYNGNTNYAQKVQGRVTMTTDTSTSTVYMELRSLRSDDTAVYYCARGYGMDVWGQGTTVTVSS
VL: QSALTQPASVSGSPGQSITISCTGTSSDVGGYNSVSWYQQHPGKPPKLMIYEVSNRPSGVSNRFSGSKSGNTASLTISGLQAEDEADYFCSSYTSTSMVFGGGTKLTVL
As for B1, the binding result in experiment [1] is “binds”; in experiment [2] it was “no binding”.

B2: 17C2.1 (antibody, V domains shown)
VH: QVQLVQSGAEVKKPGASVKVSCKASGYSFTSYGISWVRQAPGQGLEWMGWVSAYNGNTNYAQKFQGRVTMTTDTSTSTAYMELRSLRSDDTAVYYCARGYVMDVWGQGTTVTVSS
VL: QSALTQPASVFGSPGQSITISCTGTSSDVGAYNSVSWYQQHPGKAPKRMIYEVSNRPSGVSNRFSGSKSGNTASLTISGLQAEDEADYYCSSYTSTNMVFGGGTKLTVL
notes: subclone
As to B2, the binding result in experiment [2] is on record as “no binding”.

B3: 3B6 (antibody, V domains shown)
VH: QVQLVQSGAEVKKPGASVKVSCKASGYTFTSYGISWVRQAPGQGLEWMGWISTYNGNTNYAQKVQGRVTMTTDTSTSTAYMELRSLRSDDTAVYYCARGYTRDYWGQGTLVTVSS
VL: QPVLTQPLFASASLGASVTLTCTLSSGYSSYEVDWYQQRPGKGPRFVMRVDTGGIVGSKGEGIPDRFSVLGSGLNRYLTIKNIQEEDESDYHCGADHGSGTNFVVVFGGGTKLTVL
In the case of B3, the binding result is given as “binds” in experiment [3] and “no binding” in experiment [4].

B4: 26E10.1 (antibody, V domains shown)
VH: QVQLVQSGAEVKKPGASVKVSCKASGYTLTSYGISWVRQAPGQGLEWMGWVSFYNGNTNYAQKLQGRGTMTTDPSTSTAYMELRSLRSDDTAVYYCARGYGMDVWGQGTTVTVSS
VL: QSALTQPASVSGSPGQSITISCTGTSSDVGGYNSVSWYQQHPGKAPKLMIYEVSNRPSGVFNRFSGSKSGNTASLTISGLQAEDEADYYCNSYTSTSMVFGGGTKLTVL
notes: subclone
With B4, the binding result in experiment [2] was “no binding”.

B5: 31D1 (antibody, V domains shown)
VH: QIQLVQSGAEVKKPGASVKVSCKASGYTLTSYGISWVRQAPGQGLEWMGWISFYNGNTNYAQKVQGRVTMTTDTSTSTVYMELRSLRSDDTAVYFCARGYGMDVWGQGTTVTVSS
VL: QSALTQPASVSGSPGQSITISCTGTSSDVGGYNSVSWYQQHPGKPPKLMIYEVSNRPSGVSNRFSGSKSGNTASLTISGLQAEDEADYFCSSYTSTSMVFGGGTKLAVL
In the case of B5, the binding result in experiment [3] is reported as “binds”; in experiment [4], “no binding”.

B6: 23G1 (antibody, V domains shown)
VH: QVQLVQSGAEVKKPGASVKVSCKASGYTLTSYGISWVRQAPGQGLEWMGWVSFYNGNTNYAQKLQGRGTMTTDPSTSTAYMELRSLRSDDTAVYYCARGYGMDVWGQGTTVTVSS
VL: QSALTQPASVSGSPGQSITISCTGTSSDVGGYNSVSWYQQHPGKAPKLMIYEVTNRPSGVSNRFSGSKSGNTASLTISGLQAEDEADYYCNSYTSTSMVFGGGTKLTVL
Turning to B6, the values for the binding result in experiment [3] and in experiment [4] were “binds” and “no binding”, respectively.

B7: 20D10 (antibody, V domains shown)
VH: QIQLVQSGAEVKKPGASVKVSCKASGYPLTSYGISWVRQAPGQGLEWMGWISAYNGNTNYAQKVQGSVTMTTDTSTSTVYMELRSLRSDDTAVYYCARGYGMDVWGQGTTVTVSS
VL: QSALTQPASVSGSPGQSITISCTGTSSDVGGYNSVSWYQQYPGKPPKLKIYEVSNRPSGVSNRFSGSKSGNTASLTISGLQAEDEADYFCSSYTSTSMVFGGGTKLTVL
Take B7: the results for the binding result in experiment [3] and in experiment [4] were “binds” and “no binding”, respectively.

B8: 27E7 (antibody, V domains shown)
VH: QVQLVQSGAEVKKPGASLKVSCKASGYSLTSYGISWVRQAPGQGLEWMGWISAYNGNTNYAQKVQGRVTMTTDTSTSTVYMEVRSLRSDDTAVYYCARGYGMDVWGQGTTVTVSS
VL: QSALTQPASVSGSPGQSITISCTGTSSDVGGYNSVSWYQQHPGKPPKLMIYEVSNRPSGVSNRFSGSKSGNTASLTISGLQAEDEADYFCSSYTSTSMVFGGGTKLTVL
B8: the binding result in experiment [1] is reported as “binds”; in experiment [2], “no binding”.

B9: 19H9 (antibody, V domains shown)
VH: QVQLVQSGAEVKKPGASVKVSCKASGYALTSYGISWVRQAPGQGLEWMGWISAYNGNTNYAQKVQGRVTMTTDTSTSTVYMELRSLRSDDTAVYYCARGYGMDVWGQGTTVTVSS
VL: QSALTQPASVSGSPGQSITISCTGTNSDVGGYNSVSWYQQHPGKPPKLMIYEVSNRPSGISNRFSGSKSGNTASLTISGLQAEDEADYFCSSYTSTSMVFGGGTKLTVL
notes: also called 19H9.2
B9: the binding result in experiment [1] was “binds”; in experiment [2], “no binding”.

B10: 22E2 (antibody, V domains shown)
VH: QVQLVESGGGVVQPGRSLRLSCAASGFTFSSFGMHWVRQAPGKGLEWVALIWNDGSNKYYADSVKGRFTISRDNSKNTLYLQMNSLRAEDTAVYYCARAIAALYYYYGMDVWGQGTTVTVSS
VL: QSVLTQPPSVSAAPGQKVTISCSGSSSNIGNNFVSWYQQLPGTAPKLLIYDYNKRPSGIPDRFSGSKSGTSATLGITGLQTGDEADYYCGTWDSSLSGYVFGTGTRVTVL
On to B10, for which the results for the binding result in experiment [3] and in experiment [4] were “binds” and “no binding”, respectively.

B11: 13B5 (antibody, V domains shown)
VH: EVQLLESGGGLVQPGGSLRLSCAASGFTFSSYAMSWVRQAPGKGLEWVSTISGSGGRTYYADSVKGRFTISRDNSKNTLYLQMNSLRAEDTAVYYCAKEVGSPFDYWGQGTLVTVSS
VL: QSVLTQPPSVSAAPGQKVTISCSGSNSNIGNNYVSWYQQLPGTAPKLLIYDNNKRPSGIPDRFSGSNSGTSATLGITGLQTGDEADYYCGTWDSSLSAVVFGGGTKLTVL
For the molecule B11, the binding result in experiment [1] was “no binding”.

B12: 16F12 (antibody, V domains shown)
VH: QVHLVESGGGVVQPGRSLRLSCAASGFTFNSFGMHWVRQAPGKGLEWVALIWSDGSDEYYADSVKGRFTISRDNSKNTLYLQMNSLRAEDTAVYYCARAIAALYYYYGMDVWGQGTTVTVSS
VL: QSVLTQPPSVSAAPGQKVTISCSGSSSNIGNNFVSWYQQLPGTAPKLLIYDYNKRPSGIPDRFSGSKSGTSATLGITGLQTGDEADYYCGTWDSSLSAYVFGTGTRVTVL
notes: lambda light chain
As for B12, the binding result in experiment [4] is on record as “no binding”.

B13: 28B12 (antibody, V domains shown)
VH: QVQLVESGGGVVQPGRSLRLSCAASGFTFSSFGMHWVRQAPGKGLEWVALIWNDGSNKYYADSVKGRFTISRDNSKNTLYLQMNSLRAEDTAVYYCARAIAALYYYYGMDVWGHGTTVTVSS
VL: QSVLTQPPSVSAAPGQKVTISCSGSSSNIGNNFVSWYQQLPGTAPKLLIYDYNKRPSGIPDRFSGSKSGTSATLGITGLQTGDEADYYCGTWDSSLSGYVFGTGTRVTVL
For B13, the binding result is reported as “binds” in experiment [3] and “no binding” in experiment [4].

B14: 28D6 (antibody, V domains shown)
VH: QVQLVESGGGVVQPGRSLRLSCAASGFTFSSFGMHWVRQAPGKGLEWVALIWNDGSNKYYADSVKGRFTISRDNSKNTLYLQMNSLRAEDTAVYYCARAIAALYYYYGMDVWGQGTTVTVSS
VL: QSVLTQPPTVSAAPGQKVTISCSGSSSNIGNNFVSWYQQLPGTAPKLLIYDYNKRPSGIPDRFSGSKSGTSATLGITGLQTGDEADYYCGTWDSSLSGYVFGTGTRVTVL
For B14, the binding result in experiment [3] was “binds”; in experiment [4], “no binding”.

B15: 27A6 (antibody, V domains shown)
VH: QVHLVESGGGVVQPGRSLRLSCAASGFTFNSFGMHWVRQAPGKGLEWVALIWSDGSDKYYADSVKGRFTISRDNSKNTLYLQMNSLRAEDTAVYYCARAIAALYYYYGMDVWGQGTTVTVSS
VL: QSVLTQPPSVSAAPGQKVTISCSGSSSNIGNNFVSWYQQFPGTAPKLLIYDYNKRPSGIPDRFSGSKSGTSATLGITGLQTGDEADYYCGTWDSSLSSYVFGTGTRVTVL
Consider B15, for which the binding result in experiment [3] is “binds”; in experiment [4], “no binding”.

B16: 31G11 (antibody, V domains shown)
VH: QVQLVESGGGVVQPGRSLRLSCAASGFTFRSYGMHWVRQAPGKGLEWVALIWHDGSNTYYVDSVKGRFTISRDNSKNTLYLQMNSLRAEDTAVYYCARGIAVAYYYYGMDVWGQGTTVTVSS
VL: QSVLTQPPSVSAAPGQKVTISCSGSSSNIGNNFVSWYQQLPGTAPKLLIYDSNKRPSGIPDRFSGSKSGTSATLDITGLQTGDEADYYCGTWDSSLSAYVFGTGTKVTVL
Take B16: the binding result in experiment [4] is “no binding”.

B17: 31B12 (antibody, V domains shown)
VH: QVQLVESGGGVVQPGRSLRLSCAASGFTFSSYGMHWVRQAPGKGLEWVAIIWYDGSNKYYADSVKGRFTISRDNSKNTLYLQMNSLRAEDTAVYYCARRGGLAARPGGMDVWGQGTTVTVSS
VL: SYELTQPPSVSVSPGQTARITCSGDKLGDKYACWYQQKPGQSPVLVIYQNTKWPLGIPERFSGSKSGNTVTLTISGTQAMDEADYYCQAWDSSTVVFGGGTKLTVL
B17: the binding result in experiment [2] is recorded as “no binding”.
